Tested on: Escherichia coli TOP10
Assay: shrunken log2 fold change of peptide-encoding DNA abundance (4.5 h post-induction vs induction); higher = less antimicrobial activity (less host growth inhibition)
Settings: time post-induction: 4.5 h; library: site-saturation at positions 5, 18, 19, 20
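Also: peptides expressed intracellularly from a pBAD plasmid library in pooled LB shake-flask culture, induced with 0.3% L-arabinose, DNA abundance read by NGS, three biological replicates, DESeq2 with apeglm shrinkage.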

| Sequence | shrunken log2 fold change |
| --- | --- |
| RRIRVRPPRLPRPRPRPTVCPRP | 0.518 |
| RRIRVRPPRLPRPRPRPTVGPRP | 0.553 |
| RRIRVRPPRLPRPRPRPTVMPRP | 0.126 |
| RRIRVRPPRLPRPRPRPTVTPRP | 0.167 |
| RRIRVRPPRLPRPRPRPTWRPRP | 0.686 |
| RRIRVRPPRLPRPRPRPTYEPRP | -0.152 |
| RRIRVRPPRLPRPRPRPTYGPRP | -0.838 |
| RRIRVRPPRLPRPRPRPVACPRP | 0.167 |
| RRIRVRPPRLPRPRPRPVAHPRP | 0.0271 |
| RRIRVRPPRLPRPRPRPVCPPRP | 0.0825 |
| RRIRVRPPRLPRPRPRPVCYPRP | 0.0382 |
| RRIRVRPPRLPRPRPRPVDCPRP | 0.014 |
| RRIRVRPPRLPRPRPRPVDGPRP | 0.021 |
| RRIRVRPPRLPRPRPRPVFFPRP | -0.0099 |
| RRIRVRPPRLPRPRPRPVFGPRP | -0.0383 |
| RRIRVRPPRLPRPRPRPVHSPRP | 0.0275 |
| RRIRVRPPRLPRPRPRPVIFPRP | -0.0885 |
| RRIRVRPPRLPRPRPRPVIGPRP | 0.183 |
| RRIRVRPPRLPRPRPRPVIIPRP | -0.182 |
| RRIRVRPPRLPRPRPRPVINPRP | -0.712 |
| RRIRVRPPRLPRPRPRPVITPRP | -0.207 |
| RRIRVRPPRLPRPRPRPVKLPRP | -0.407 |

| Sequence | shrunken log2 fold change |
| --- | --- |
| RRIRVRPPRLPRPRPRPVKWPRP | -0.0595 |
| RRIRVRPPRLPRPRPRPVLEPRP | -0.0482 |
| RRIRVRPPRLPRPRPRPVLTPRP | 0.146 |
| RRIRVRPPRLPRPRPRPVMDPRP | -0.324 |
| RRIRVRPPRLPRPRPRPVMQPRP | -0.0429 |
| RRIRVRPPRLPRPRPRPVPCPRP | -0.162 |
| RRIRVRPPRLPRPRPRPVPGPRP | 0.0985 |
| RRIRVRPPRLPRPRPRPVSCPRP | 0.182 |
| RRIRVRPPRLPRPRPRPVTCPRP | -0.155 |
| RRIRVRPPRLPRPRPRPVTSPRP | -0.558 |
| RRIRVRPPRLPRPRPRPVVWPRP | 0.385 |
| RRIRVRPPRLPRPRPRPVWAPRP | 0.394 |
| RRIRVRPPRLPRPRPRPVWLPRP | 0.276 |
| RRIRVRPPRLPRPRPRPVYCPRP | -0.482 |
| RRIRVRPPRLPRPRPRPVYQPRP | -0.243 |
| RRIRVRPPRLPRPRPRPWAAPRP | 0.049 |
| RRIRVRPPRLPRPRPRPWAPPRP | 0.0631 |
| RRIRVRPPRLPRPRPRPWCQPRP | -0.187 |
| RRIRVRPPRLPRPRPRPWCWPRP | -0.0537 |
| RRIRVRPPRLPRPRPRPWDHPRP | -0.103 |
| RRIRVRPPRLPRPRPRPWDPPRP | -0.301 |
| RRIRVRPPRLPRPRPRPWDQPRP | -0.00149 |

| Sequence | shrunken log2 fold change |
| --- | --- |
| RRIRVRPPRLPRPRPRPWEFPRP | -0.102 |
| RRIRVRPPRLPRPRPRPWFQPRP | -0.139 |
| RRIRVRPPRLPRPRPRPWGRPRP | 0.0354 |
| RRIRVRPPRLPRPRPRPWHWPRP | -0.0605 |
| RRIRVRPPRLPRPRPRPWMAPRP | -0.338 |
| RRIRVRPPRLPRPRPRPWMCPRP | -0.522 |
| RRIRVRPPRLPRPRPRPWMEPRP | -0.124 |
| RRIRVRPPRLPRPRPRPWNPPRP | -0.0803 |
| RRIRVRPPRLPRPRPRPWPMPRP | 0.0297 |
| RRIRVRPPRLPRPRPRPWPTPRP | 0.266 |
| RRIRVRPPRLPRPRPRPWRQPRP | 0.2 |
| RRIRVRPPRLPRPRPRPWTEPRP | -0.0547 |
| RRIRVRPPRLPRPRPRPWTRPRP | -0.0486 |
| RRIRVRPPRLPRPRPRPWVAPRP | -0.00183 |
| RRIRVRPPRLPRPRPRPWVHPRP | -0.306 |
| RRIRVRPPRLPRPRPRPWWFPRP | -0.307 |
| RRIRVRPPRLPRPRPRPWWWPRP | 0.0767 |
| RRIRVRPPRLPRPRPRPWYNPRP | -0.153 |
| RRIRVRPPRLPRPRPRPYAYPRP | 0.0587 |
| RRIRVRPPRLPRPRPRPYCPPRP | -0.462 |
| RRIRVRPPRLPRPRPRPYCSPRP | -0.0744 |
| RRIRVRPPRLPRPRPRPYCYPRP | -0.745 |

| Sequence | shrunken log2 fold change |
| --- | --- |
| RRIRVRPPRLPRPRPRPYEQPRP | -0.285 |
| RRIRVRPPRLPRPRPRPYEVPRP | 0.0284 |
| RRIRVRPPRLPRPRPRPYFAPRP | -0.246 |
| RRIRVRPPRLPRPRPRPYFKPRP | -0.49 |
| RRIRVRPPRLPRPRPRPYGKPRP | -0.289 |
| RRIRVRPPRLPRPRPRPYIHPRP | -0.757 |
| RRIRVRPPRLPRPRPRPYMWPRP | -0.48 |
| RRIRVRPPRLPRPRPRPYNGPRP | -0.514 |
| RRIRVRPPRLPRPRPRPYPGPRP | -0.183 |
| RRIRVRPPRLPRPRPRPYPNPRP | 0.0262 |
| RRIRVRPPRLPRPRPRPYQHPRP | -0.301 |
| RRIRVRPPRLPRPRPRPYRNPRP | -0.0374 |
| RRIRVRPPRLPRPRPRPYSFPRP | -0.594 |
| RRIRVRPPRLPRPRPRPYTQPRP | -0.171 |
| RRIRVRPPRLPRPRPRPYWCPRP | -0.409 |
| RRIRVRPPRLPRPRPRPYWIPRP | -0.163 |
| RRIRVRPPRLPRPRPRPYYCPRP | -0.513 |
| RRIRWRPPRLPRPRPRPAASPRP | 0.404 |
| RRIRWRPPRLPRPRPRPACEPRP | 0.11 |
| RRIRWRPPRLPRPRPRPACGPRP | 0.508 |
| RRIRWRPPRLPRPRPRPADNPRP | 0.212 |
| RRIRWRPPRLPRPRPRPADWPRP | 0.345 |

| Sequence | shrunken log2 fold change |
| --- | --- |
| RRIRWRPPRLPRPRPRPAEGPRP | 0.000853 |
| RRIRWRPPRLPRPRPRPAGIPRP | 0.186 |
| RRIRWRPPRLPRPRPRPAGMPRP | 0.321 |
| RRIRWRPPRLPRPRPRPAGYPRP | 0.278 |
| RRIRWRPPRLPRPRPRPAINPRP | 0.185 |
| RRIRWRPPRLPRPRPRPAIWPRP | 0.596 |
| RRIRWRPPRLPRPRPRPAKCPRP | -0.0704 |
| RRIRWRPPRLPRPRPRPAKNPRP | 0.263 |
| RRIRWRPPRLPRPRPRPALPPRP | 0.374 |
| RRIRWRPPRLPRPRPRPALQPRP | 0.367 |
| RRIRWRPPRLPRPRPRPAMDPRP | 0.109 |
| RRIRWRPPRLPRPRPRPAMPPRP | 0.446 |
| RRIRWRPPRLPRPRPRPAMRPRP | 1.1 |
| RRIRWRPPRLPRPRPRPAPSPRP | 0.393 |
| RRIRWRPPRLPRPRPRPAQKPRP | 0.157 |
| RRIRWRPPRLPRPRPRPAQRPRP | 0.418 |
| RRIRWRPPRLPRPRPRPASNPRP | -0.0347 |
| RRIRWRPPRLPRPRPRPATRPRP | 0.38 |
| RRIRWRPPRLPRPRPRPAVCPRP | 0.803 |
| RRIRWRPPRLPRPRPRPAYAPRP | 0.531 |
| RRIRWRPPRLPRPRPRPAYDPRP | 0.126 |
